Article PMC5715081, “Purification and functional comparison of nine human Aquaporins produced in Saccharomyces cerevisiae for the purpose of biophysical characterization” (Scientific Reports, 2017)

B1: human AQP2-TEV-GFP-His10 fusion (natural protein, UniProt P41181 1-271, looked up)
chain: MWELRSIAFSRAVFAEFLATLLFVFFGLGSALNWPQALPSVLQIAMAFGLGIGTLVQALGHISGAHINPAVTVACLVGCHVSVLRAAFYVAAQLLGAVAGAALLHEITPADIRGDLAVNALSNSTTAGQAVTVELFLTLQLVLCIFASTDERRGENPGTPALSIGFSVALGHLLGIHYTGCSMNPARSLAPAVVTGKFDDHWVFWIGPLVGAILGSLLYNYVLFPPAKSLSERLAVLKGLEPDTDWEEREVRRRQSVELHSPQSLPRGTKA
notes: Aquaporin 2, human, cDNA codon optimized for S. cerevisiae; primers run from the start codon to the last codon; also called AQP2-GFP; APQ2-GFP; not shown: TEV cleavage site, C-terminal, kept; yeGFP, C-terminal, kept; His10, C-terminal, kept
B2: human AQP6-TEV-GFP-His10 fusion (natural protein, UniProt Q13520 1-282, looked up)
chain: MDAVEPGGRGWASMLACRLWKAISRALFAEFLATGLYVFFGVGSVMRWPTALPSVLQIAITFNLVTAMAVQVTWKASGAHANPAVTLAFLVGSHISLPRAVAYVAAQLVGATVGAALLYGVMPGDIRETLGINVVRNSVSTGQAVAVELLLTLQLVLCVFASTDSRQTSGSPATMIGISVALGHLIGIHFTGCSMNPARSFGPAIIIGKFTVHWVFWVGPLMGALLASLIYNFVLFPDTKTLAQRLAILTGTVEVGTGAGAGAEPLKKESQPGSGAVEMESV
notes: Aquaporin 6, human, cDNA codon optimized for S. cerevisiae; primers run from the start codon to the last codon; also called AQP6-GFP; Aquaporin 6; not shown: TEV cleavage site, C-terminal, kept; yeGFP, C-terminal, kept; His10, C-terminal, kept
B3: human AQP9-TEV-GFP-His10 fusion (natural protein, UniProt O43315 1-295, looked up)
chain: MQPEGAEKGKSFKQRLVLKSSLAKETLSEFLGTFILIVLGCGCVAQAILSRGRFGGVITINVGFSMAVAMAIYVAGGVSGGHINPAVSLAMCLFGRMKWFKLPFYVGAQFLGAFVGAATVFGIYYDGLMSFAGGKLLIVGENATAHIFATYPAPYLSLANAFADQVVATMILLIIVFAIFDSRNLGAPRGLEPIAIGLLIIVIASSLGLNSGCAMNPARDLSPRLFTALAGWGFEVFRAGNNFWWIPVVGPLVGAVIGGLIYVLVIEIHHPEPDSVFKTEQSEDKPEKYELSVIM
notes: Aquaporin 9, human, cDNA codon optimized for S. cerevisiae; primers run from the start codon to the last codon; also called AQP9-GFP; Aquaporin 9; not shown: TEV cleavage site, C-terminal, kept; yeGFP, C-terminal, kept; His10, C-terminal, kept

Molecular target: the molecule itself
Test: SDS-PAGE (SDS-resistant oligomers); peak fractions of Ni-affinity purified, detergent solubilised AQP-TEV-GFP-His10 fusions separated by SDS-PAGE; in-gel fluorescence and Coomassie staining

Binding result, binds:
B1, B2, B3
